Reference: the supplement of paper PMC12764529
± gives the half width of the 95% confidence interval.

Experiments:
[1] = folding stability dG unfold from trypsin proteolysis; higher = more stable
Procedure: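 Folding stability of de novo designed mini-proteins (<80 aa, no Cys; designed by TrROS, TrMRF, ProteinMPNN and the joint model) was measured by cDNA display proteolysis with trypsin and chymotrypsin. Each protease was used at 11 concentrations in a threefold dilution series plus a no-protease condition. K50 was inferred by Bayesian fitting of sequencing counts, and dG unfold was derived against a sequence-predicted unfolded-state K50 (Tsuboyama et al. method). Sequences shown include variable-length N-terminal GS-type padding (SAGGSAGG...) inside a display construct carrying a PA tag. Rows were kept only if the AF2 dimer inter-PAE was >15, to exclude likely homo-oligomers.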

[2] = folding stability dG unfold (combined trypsin and chymotrypsin); higher = more stable
How it was run: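 Mini-proteins designed to be under 80 residues and free of cysteine were carried in a PA-tagged cDNA display construct and digested with trypsin and with chymotrypsin. Each protease was applied at 11 threefold-diluted concentrations, alongside a no-protease condition, before sequencing. K50 came from Bayesian fitting of the sequencing counts, and unfolding free energy was obtained by comparing it with a sequence-predicted unfolded-state K50 and a shared folded-state K50, for each protease separately or for both together. Designs were retained only if their AlphaFold2 dimer inter-PAE exceeded 15.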

| Sequence | folding stability dG unfold [1] [kcal/mol] | folding stability dG unfold [2] [kcal/mol] |
| --- | --- | --- |
| SAGPKNAKPIGTVRIRNPNGRKINIMQWPNPIMVHIKPPDGKKREVPIRGAPMEEILDELAEDGWEVEPSAG [r5_613_TrROS] | -0.489 ± 0.63 | < -1 |
| SAGGSAGGSAGGWKTISVNELQDILREEGKPMTADDLIEDPNIKVEENPGNGMPTIEIPPSAGGSAGGSAGG [r7_180_TrROS] | -0.891 ± 0.24 | -0.77 ± 0.79 |
| SAGGSAGGSAGGGLYNVVVTGKGEERVLPAKSPDDVKEALEEAGLEIKSIHPETGIVEAGSAGGSAGGSAGG [r7_726_TrMRF] | -0.471 ± 0.18 | < -1 |
| SAGMSLKLEVPIDGHMIEVTVHPSPPRATAKYPEFDATAEATISEPGLINLTITDPKTGKPYPLDVTLPSAG [r14_656_JUSTAS] | 0.621 ± 0.023 | 0.152 ± 0.1 |
| SAGGSAGGSAGGTPFKAKDPKTDKVYLGEKDPVSGKVTITDPNTGNPIIVPGGEIEFIVSAGGSAGGSAGGS [r10_28_JUSTAS] | 0.00952 ± 0.041 | -0.282 ± 0.16 |
| SAGGSAGGSMPPEELRKKILEDPNVEVLSIEPPGPEVTLITTKYPRETETPTTETVTEKLPVPLSAGGSAGG [r6_154_JUSTAS] | -0.392 ± 0.33 | -0.568 ± 0.33 |
| SAGGSAGGSAGGKNMQEVPFPIEIKDPKNGKKIKIPVEVRRNPDDGKYQITPEALEELIKSAGGSAGGSAGG [r7_557_TrROS] | -0.809 ± 0.31 | < -1 |
| SAGGSAGGSENNIVIKMKMEMPNQEMKFRFPIPADKLKDALKEGKPIKFPNGMNVRITEIIPVSAGGSAGGS [r12_432_TrROS] | -0.864 ± 0.81 | < -1 |
| SAGGMTKPTSSPSPLDPSTPPEEWIAAIEKELPPDWRIVEPRPRPGPRLVTVLAEDPNSGKRVILRASAGGS [r16_250_JUSTAS] | -0.989 ± 0.55 | < -1 |
| SAGGMSKEEARKAIENPADATYTFTITTRPSTPTPSSTTTTVTAKVTDPDAFLDAVPEGHSVTVTASSAGGS [r16_116_JUSTAS] | -0.465 ± 0.14 | < -1 |
| SAMLVVLKDPKTGKLILVDPEQLSPEYLERGVEPVREIPPLEVVEVESEEEAEEIRKKYPEKILVTLGPSAG [r14_638_JUSTAS] | 0.68 ± 0.1 | -0.121 ± 0.26 |
| SAGGSEKLLEEIKEKEFNIPPFIDPKTGKEYPGAKVKVKEAKKIKDTKKIKLIVETPEGKHEFILGSAGGSA [r2_314_TrMRF] | 0.324 ± 0.22 | < -1 |
| SAGGSAGGDGDFRVSIDPEELPDGQEYKISIQSPDGKPIAEIPIRIPLPPPKPERDDNGKPKPVSAGGSAGG [r6_487_TrROS] | 0.844 ± 0.025 | 0.216 ± 0.099 |
| SAGGSAGGSAGTTTKITEIKELPTDYVELTMKYPDGTTIKKLIPKSIYKDLPVSSTFSGGSAGGSAGGSAGG [r11_943_JUSTAS] | -0.0564 ± 0.14 | < -1 |
| SAGGSAGGSAGGSMPVEILEVEEADPETGIRTYKLRDPVIGVESTIEGPLSPEEIEALLSAGGSAGGSAGGS [r4_228_JUSTAS] | -0.808 ± 0.55 | < -1 |
| SAGGSAGGSAGGPSAVSSSSSSRTTTVPGTGTPLRVSSTTTTLDAATGASTTTTTTSPGASAGGSAGGSAGG [r11_1029_JUSTAS] | -0.553 ± 0.13 | < -1 |
| SAGGLDSAPPVEVKVEVEEEKTKDPNSDSEVTKYKITVTTTVGGTPIVTEEESIVYKKPDGTIIVEKKSAGG [r19_260_JUSTAS] | -0.403 ± 0.28 | -0.242 ± 0.96 |
| SAGGSAGGSAGMKIIVKSKEEAEKIAKEIAKKLGIEKKIKKIEIIVIPYKKTKDGKIEKISAGGSAGGSAGG [r17_237_TrROS_Hall] | 0.36 ± 0.19 | -0.184 ± 0.61 |

| Sequence | folding stability dG unfold [1] [kcal/mol] | folding stability dG unfold [2] [kcal/mol] |
| --- | --- | --- |
| SAGGSAGGSAGVIEVPIEELENLPDDVKVVPTENTAVIYNEKNPIVVPKNEPVLIAPSDKSAGGSAGGSAGG [r17_91_TrMRF] | 0.937 ± 0.051 | < -1 |
| SPKIEIEPMPPNMFIAKIRDPEKNKKVSIHIPPNMPPGQPMQVYDPDKPKWVPFNEIEELLKKGLPVEIYSA [r9_250_TrROS] | 0.0989 ± 0.23 | -0.496 ± 0.98 |
| SAGGKIREVEIEEFDPDNGWVMITFNMPPEDLDKMKPIKLPGIKDVHWDPGNDHISASMPLEEAKEASAGGS [r16_614_TrROS] | -0.121 ± 0.17 | -0.5 ± 0.41 |
| SAGGSAGGSAGMTLEEIEELLKKEGIDPSTLGNEKIAEIIKKKNPNTTITSSPEGTGYISKSAGGSAGGSAG [r3_375_JUSTAS] | 0.27 ± 0.18 | < -1 |
| SMKLKITIPLPGNNEINIEIEIKPYFDPNTKKLYFEANIKVTFTYYIPGFDKPFSFTSEFKFRFELSDDLSA [r9_140_TrMRF] | 4.46 ± 0.16 | > 6 |
| SAGGSAGGSAMKEYVVASRGYDPATGLYSLTIESSEGKKVKNVTFDDPSNPEKAINEAIAKESAGGSAGGSA [r18_479_JUSTAS] | -0.713 ± 0.34 | -0.829 ± 0.35 |
| SFRIEPDPDGTVTVRIPKDFPNKPAEEIADYIQKAFGPGMKIDKDIKIEPDPENGWVEITVKVKLPPGAKSA [r9_1011_TrROS] | 0.913 ± 0.16 | 0.0899 ± 0.33 |
| SAGGSAGGSAKKTAVIELIDPKDPKPKTITIPFDLKDGKTSLEELKKLVPDYTITSIAVFDDSAGGSAGGSA [r18_494_TrMRF] | -0.182 ± 0.15 | < -1 |
| SAGGSAGGSAGGALVVEVEVEGERRTLVVPVPDEIPPGAEEVAKKLGLKDAKVKIAPLDLSAGGSAGGSAGG [r11_219_TrMRF] | -0.662 ± 0.53 | < -1 |
| SAGGSAGGMVTFDTPEELEALIEELLARHPRDVPVDVTIESEDSRYTIKVAPERVEEISESEGSSAGGSAGG [r6_289_JUSTAS] | -0.763 ± 0.47 | < -1 |
| SAGGHRMDIQFDGSPDKIEEIQKKIHKKWPDYKVDDIEVNPGNPDQVTIRIEMDNGIPMNEIQEALMSAGGS [r16_180_TrROS] | -1.32 ± 0.22 | < -1 |
| SAGSPIDLGEVEVEEKPVETDPATGLTTTETVITAPDGRPVFVKYTTKDPATGTTTVTETPVGVDPELTSAG [r5_200_JUSTAS] | -0.556 ± 0.096 | < -1 |
| SAGVTVERKPGDGSLTVTVPADDGPLTIEVDLLPNTGTLKATVTYDDGTPATYTFPGGTLEDIIERLHSAGG [r19_159_TrMRF] | -0.0867 ± 0.088 | -0.153 ± 0.22 |
| SAGGSAGGSAGGMTIKEIMKRFPGGGEIDITEIPGDRITIEMRFPNGNNRRRTIPPDEISAGGSAGGSAGGS [r10_612_TrROS] | -0.04 ± 0.34 | -0.582 ± 0.33 |
| SAGGSAGGSAGGSGPEPKFTVEVDPEKDEVTFLVELEDKPLLLVVKDWPEDDPLLKNAFSAGGSAGGSAGGS [r4_328_TrMRF] | 0.388 ± 0.097 | 0.0825 ± 0.29 |
| SAGGSAGGSAGSPIPVEVKVTTFGPGGVPREAELLTGDPAAFEKAIGKPLPDGSKVEVLLSAGGSAGGSAGG [r11_671_JUSTAS] | -0.129 ± 0.083 | -0.955 ± 0.48 |
| SMYRIEVVRDGKPIPREAVEAAAEAIERARGRPISPEALARELASVPNTVVTVEAYDEPGKPLGTLTFAESA [r9_1045_TrMRF] | -0.253 ± 0.17 | -0.703 ± 0.37 |
| SAGGSAGGSAGMVFPVDGKEVVIDRGADDALRVTVFGPDGSASEAVFPGKDIPTVLKALSSAGGSAGGSAGG [r11_934_TrMRF] | -0.23 ± 0.24 | < -1 |
